Here are results for 6 molecules from patent publication US20220056119A1 (Regeneron, published 2022).

The target in assay [1] is T1, Activin A (R&D Systems, #338-AC) (human, UniProt P08476 311-426).
T1 construct: Bought protein; also called inhibin-βA dimer; homodimer of two βA subunits
T1 sequence: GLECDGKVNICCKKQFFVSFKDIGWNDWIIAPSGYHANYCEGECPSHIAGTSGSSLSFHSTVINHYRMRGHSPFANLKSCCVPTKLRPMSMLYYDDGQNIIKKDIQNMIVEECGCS
The assay is described as follows: SPR blocking: 5 nM Activin A + 15 nM binder over hActRIIB-hFc (Control 4) surface. Here is the method:
(§1) The binding signal (RU) was measured at 150 seconds after the start of the injection, and this signal was subtracted by the measured RU value for a negative control reference surface to determine the specific binding signal.

Assay [2] addresses T1, Activin A (R&D Systems, #338-AC). The assay is described as follows: SPR blocking: 5 nM Activin A + 30 nM binder over hActRIIB-hFc (Control 4) surface. As to the method:
as §1

The target is the same in assay [3]. The assay is described as follows: SPR blocking: 5 nM Activin A + 60 nM binder over hActRIIB-hFc (Control 4) surface. As to the method: as §1
Assay [4] shares this target. The assay is described as follows: SPR blocking: 5 nM Activin A + 0.00 nM binder over hActRIIB-hFc (Control 4) surface. Here is the method:
as §1

Assay [5] has the same target. The assay is described as follows: SPR blocking: 5 nM Activin A + 0.94 nM binder over hActRIIB-hFc (Control 4) surface. Here is the method: as §1
Assay [6] has the same target. Description: SPR blocking: 5 nM Activin A + 1.88 nM binder over hActRIIB-hFc (Control 4) surface. Here is the method:
as §1

For assay [7] the target is unchanged. The assay is described as follows: SPR blocking: 5 nM Activin A + 3.75 nM binder over hActRIIB-hFc (Control 4) surface.
Assay [8] shares this target. Description: SPR blocking: 5 nM Activin A + 7.50 nM binder over hActRIIB-hFc (Control 4) surface. As to the method: as §1
The target of assay [9] is T2, Activin A (human, UniProt P08476 311-426).
T2 sequence: T1 sequence
The assay is described as follows: cell-based or functional assay.

In another assay the target is T3, Activin AB (human, UniProt P08476 311-426; P09529 293-407).
T3 chain 1: T1 sequence
T3 chain 2: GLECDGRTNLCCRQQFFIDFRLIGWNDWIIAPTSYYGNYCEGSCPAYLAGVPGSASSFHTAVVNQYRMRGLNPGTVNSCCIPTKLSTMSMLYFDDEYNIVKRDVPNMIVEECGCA
Description: cell-based or functional assay.

The target in the next assay is T4, Activin AC (human, UniProt P55103 237-352).
T4 sequence 1: T1 sequence
T4 sequence 2: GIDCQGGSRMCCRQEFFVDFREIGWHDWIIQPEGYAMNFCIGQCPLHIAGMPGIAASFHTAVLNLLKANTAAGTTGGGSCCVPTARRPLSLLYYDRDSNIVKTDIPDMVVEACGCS
The assay is described as follows: cell-based or functional assay.

Assay [10] addresses T2, Activin A. Description: SPR, 5 nM Activin A + 15 nM binder over hActRIIA-hFc surface. As to the method:
as §1
(In general: SPR reads the build-up and loss of mass on a sensor chip optically.)

Assay [11] has as its target T2, Activin A. The assay is described as follows: SPR, 5 nM Activin A + 30 nM binder over hActRIIA-hFc surface. Here is the method: as §1
The target in assay [12] is T2, Activin A. The assay is described as follows: SPR, 5 nM Activin A + 60 nM binder over hActRIIA-hFc surface. As to the method:
as §1

Assay [13] has as its target T2, Activin A. The assay is described as follows: SPR, 5 nM Activin A + 0.94 nM binder over hActRIIA-hFc surface. Here is the method:
as §1

Assay [14] deals with T2, Activin A. Description: SPR, 5 nM Activin A + 1.88 nM binder over hActRIIA-hFc surface. As to the method:
as §1

In assay [15] the target is T2, Activin A. The assay is described as follows: SPR, 5 nM Activin A + 3.75 nM binder over hActRIIA-hFc surface. Here is the method:
as §1

The target of assay [16] is T2, Activin A. Description: SPR, 5 nM Activin A + 7.50 nM binder over hActRIIA-hFc surface. As to the method:
as §1

Assay [17] addresses T2, Activin A. The assay is described as follows: SPR, 5 nM Activin A + 15 nM binder over Follistatin-288 surface. As to the method: as §1
Assay [18] addresses T2, Activin A. The assay is described as follows: SPR, 5 nM Activin A + 30 nM binder over Follistatin-288 surface. As to the method:
as §1

Assay [19] deals with T2, Activin A. Description: SPR, 5 nM Activin A + 60 nM binder over Follistatin-288 surface. As to the method: as §1
Assay [20] has as its target T2, Activin A. Description: SPR, 5 nM Activin A + 7.5 nM binder over Follistatin-288 surface. Here is the method:
as §1

Assay [21] deals with T2, Activin A. Description: SPR, 5 nM Activin A + 0.94 nM binder over Follistatin-288 surface. Here is the method:
as §1

The target in assay [22] is T2, Activin A. Description: SPR, 5 nM Activin A + 1.88 nM binder over Follistatin-288 surface. Here is the method:
as §1

Assay [23] concerns the target T2, Activin A. Description: SPR, 5 nM Activin A + 3.75 nM binder over Follistatin-288 surface. Here is the method:
as §1

Assay [24] addresses T2, Activin A. The assay is described as follows: SPR, 5 nM Activin A + 0 nM binder (no inhibitor) over Follistatin-288 surface. Here is the method: as §1
The target of assay [25] is T2, Activin A. The assay is described as follows: SPR, 5 nM Activin A + 0.00 nM binder (no inhibitor) over hActRIIA-hFc surface. Here is the method: as §1

B1: H4H10440P2 (antibody, human IgG4, V domains shown)
VH: EVQLVESGGGVVQPGGSLRLSCAASTFTFDDFAMHWVRQAPGKGLEWVSLITGDGGSTYYADPVKGRFTISRDNSKNSLYLQMNSLRTEDTALYYCVKDWWIAARPDYYYYGMDVWGQGTTVTVSS
VL: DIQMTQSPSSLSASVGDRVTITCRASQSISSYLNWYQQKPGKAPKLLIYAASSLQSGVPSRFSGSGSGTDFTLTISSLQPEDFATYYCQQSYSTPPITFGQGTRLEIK
For B1, the “% bound RU w/ no inhibitor” value stood at 4% in [1]; 4% in assay [2]; 4% in [3]; 100% in assay [4]; 79% in assay [5]; 58% in [6]. In addition, the “% bound RU w/ no inhibitor” value turned out to be 19% in assay [7] and 7% in [8].

B2: H4H10430P (antibody, human IgG4, V domains shown)
VH: EVQLVESGGGLVQPGRSLRLSCKASGFAFDDFAMHWVRQAPGKGLEWVSGIVWNSGDIGYADSVKGRFTISRDNAKNSLYLQLNSLRTEDTALYFCVKDMVRGLMGFNYYGMDVWGQGTTVTVSS
VL: EIVLTQSPATLSLSPGERATLSCRASQTISTYLVWYRQRPGQAPSLLIYDASNRATDIPARFSGSGSGTDFTLTISSLEPEDFAVYYCQQRSNWPITFGQGTRLEIK
notes: also called mAb1
For the molecule B2, the “% bound RU w/ no inhibitor” value is 3% in assay [1]; 3% in assay [2]; 3% in assay [3]; 100% in assay [4]; 80% in assay [5]; 62% in [6]. Further, the “% bound RU w/ no inhibitor” value is 20% in [7] and 4% in assay [8].

B3: H4H10442P2 (antibody, human IgG4, V domains shown)
VH: QVQLQESGPGLVKPSETLSITCTVSGGSFSSHFWTWIRQPPGKGLEWIGYLHYSGGTSYNPSLKSRVIISVDTSKNQFSLKLNSVTAADTAVYYCARARSGITFGGLIVPGSFDIWGQGTMVTVSS
VL: not shown
Regarding B3, the “IC50, inhibition of 100 pM Activin A in A204/CAGAx12-Luc luciferase bioassay” value in the assay with Activin A [9] was 5.6e-11 M. The “IC50, inhibition of 30 pM Activin AB in A204/CAGAx12-Luc luciferase bioassay” value in the assay with Activin AB came out at 2.2e-09 M. Further, the “IC50, inhibition of 4 nM Activin AC in A204/CAGAx12-Luc luciferase bioassay” value with Activin AC was 6.5 nM. The “% bound RU w/ no inhibitor” value with Activin A [10] amounted to 113%; with Activin A [11], 117%; with Activin A [12], 118%; with Activin A [13], 114%; with Activin A [14], 114%; in the assay with Activin A [15] it was 95%. The “% bound RU w/ no inhibitor” value in the assay with Activin A [16] is 105%; with Activin A [17], 3%; in the assay with Activin A [18], 3%; in the assay with Activin A [19], 3%; with Activin A [20], 3%; in the assay with Activin A [21], 73%. Besides, the “% bound RU w/ no inhibitor” value came to 46% in the assay with Activin A [22], 6% in the assay with Activin A [23], 100% with Activin A [24] and 100% with Activin A [25].

B4: H4H10442P2 (antibody, human IgG4, V domains shown)
VH: B3 VH
VL: not shown
On to B4, for which the “% bound RU w/ no inhibitor” value in [1] turned out to be 115%; in [2], 122%; in [3], 124%; in assay [4], 100%; in [5] it was 110%; in assay [6], 106%. Further, the results for the “% bound RU w/ no inhibitor” value in assay [7] and in assay [8] were 88% and 103%, respectively.

B5: H4H10446P2 (antibody, human IgG4, V domains shown)
VH: QVQLQESGPGLVKPSETLSLTCTVSGGSFSSHFWSWIRQPPGKGLEWIGYILYTGGTSFNPSLKSRVSMSVGTSKNQFSLKLSSVTAADTAVYYCARARSGITFTGIIVPGSFDIWGQGTMVTVSS
VL: not shown
notes: also called mAb2
With B5, the “% bound RU w/ no inhibitor” value in [1] came out at 115%; in assay [2], 89%; in assay [3], 129%; in [4], 100%; in [5], 107%; in assay [6], 105%. Moreover, the “% bound RU w/ no inhibitor” value in assay [7] was 76%; in [8], 95%.

B6: H4H10446P2 (antibody, human IgG4, V domains shown)
VH: B5 VH
VL: not shown
notes: also called mAb2
As to B6, the “IC50, inhibition of 100 pM Activin A in A204/CAGAx12-Luc luciferase bioassay” value with Activin A [9] worked out at 4.7e-11 M. The “IC50, inhibition of 30 pM Activin AB in A204/CAGAx12-Luc luciferase bioassay” value with Activin AB was found to be 8.2e-09 M. For the same molecule, in the assay with Activin AC, the “IC50, inhibition of 4 nM Activin AC in A204/CAGAx12-Luc luciferase bioassay” value was 5.6 nM. For the same molecule, the “% bound RU w/ no inhibitor” value with Activin A [10] came out at 108%; with Activin A [11], 98%; with Activin A [12], 118%; with Activin A [13], 111%; in the assay with Activin A [14], 115%; with Activin A [15] it was 85%. In addition, the “% bound RU w/ no inhibitor” value in the assay with Activin A [16] was 94%; with Activin A [17], 3%; in the assay with Activin A [18] it was 3%; in the assay with Activin A [19], 3%; with Activin A [20], 3%; in the assay with Activin A [21], 77%. For the same molecule, the “% bound RU w/ no inhibitor” value with Activin A [22] was 54%; with Activin A [23], 7%; in the assay with Activin A [24], 100%; with Activin A [25] it was 100%.
